For assay [1], the target named is T1, human OX40 on cells (CHO-hOX40, 293HEK-hOX40, Jurkat-hOX40, activated primary CD4+ T cells) (human, UniProt P43489 29-277).
T1 construct: whole, on cells; The cell type is told in each assay; also called CHO-OX40
T1 sequence (looked up): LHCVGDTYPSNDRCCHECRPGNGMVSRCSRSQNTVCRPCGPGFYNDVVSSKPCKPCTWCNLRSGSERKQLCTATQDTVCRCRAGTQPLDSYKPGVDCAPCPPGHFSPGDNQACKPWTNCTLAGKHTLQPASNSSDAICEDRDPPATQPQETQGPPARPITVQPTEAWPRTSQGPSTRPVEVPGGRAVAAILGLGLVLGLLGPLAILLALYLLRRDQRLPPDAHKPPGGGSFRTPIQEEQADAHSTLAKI
Put plainly: flow cytometry, CHO-hOX40, 6.25 nM.

Assay [2] has as its target T1, human OX40 on cells (CHO-hOX40, …). Briefly: flow cytometry, CHO-hOX40.
Assay [3] shares this target. Put plainly: cell-based or functional assay.
Assay [4] has the same target. Put plainly: flow cytometry, CHO-hOX40, 0.1953125 nM.
Assay [5] has the same target. Briefly: flow cytometry, CHO-hOX40, 200 nM.
Assay [6] has the same target. Put plainly: flow cytometry, CHO-hOX40, 50 nM.
Assay [7] shares this target. Put plainly: flow cytometry, CHO-hOX40, 0.390625 nM.
The target is the same in assay [8]. Put plainly: flow cytometry, CHO-hOX40, 0.78125 nM.
Assay [9] has the same target. Briefly: flow cytometry, CHO-hOX40, 25 nM.
Assay [10] has the same target. Briefly: flow cytometry, CHO-hOX40, 50 nM. The source holds these as a separate data set.
Assay [11] has the same target. Put plainly: flow cytometry, CHO-hOX40, 0.390625 nM. This is another data set of the same source.
For assay [12] the target is unchanged. Briefly: flow cytometry, CHO-hOX40, 1.5625 nM.
The target is the same in assay [13]. Briefly: flow cytometry, CHO-hOX40, 25 nM. The source holds these as a separate data set.

B1: OX40L (control reagent; recombinant OX40L, Acro Biosystems) (ligand, UniProt P23510 51-183, looked up)
chain: QVSHRYPRIQSIKVQFTEYKKEKGFILTSQKEDEIMKVQNNSVIINCDGFYLISLKGYFSQEVNISLHYQKDEEPLFQLKKVRSVNSLMVASLTYKDKVYLNVTTDNTSLDDFHVNGGELILIHQNPGEFCVL
notes: may be the same reagent as OX40L-hFc
For the molecule B1, the MFI in assay [1] was 1.48e+06 MFI; in assay [4], 24800 MFI; in assay [5], 2.08e+06 MFI; in assay [6] it was 2.72e+06 MFI; in assay [7], 119000 MFI; in [8], 317000 MFI. Also, the MFI in [9] was found to be 2.8e+06 MFI; in assay [10], 1.08e+06 MFI; in [11], 49700 MFI; in assay [12], 172000 MFI; in assay [13], 1.84e+06 MFI. For the same molecule, the 50% effective concentration (EC50) in assay [2] came to 12.4 nM. The “NFkB-Luc fold change in Jurkat stimulated by PHA+ anti-CD28” value in [3] is 4.82 fold over IgG4 control. In addition, in [3], the “NFkB-Luc fold change in Jurkat stimulated by anti-CD3+ anti-CD28” value was determined as 4.05 fold over IgG4 control.

For the origin of these results see patent US20200140562A1 (Innovent, published 2020).
